Changes are numbered by the printed parent chain. Values joined by “and” are separate entries in the source; they are usually repeats but may differ in a detail not shown here. Identical values can stand only once.

The target in assay [1] is T1, human IL-4 (human, UniProt P05112 25-153, biotinylated in the receptor binding assay and on the Biacore chip).
T1 construct: also called interleukin-4; biotinylated IL-4
T1 sequence (looked up): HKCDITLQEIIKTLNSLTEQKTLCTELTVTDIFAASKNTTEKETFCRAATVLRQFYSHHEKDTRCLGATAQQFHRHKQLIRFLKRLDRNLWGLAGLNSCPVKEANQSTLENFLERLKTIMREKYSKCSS
Put plainly: DOM9 RBA (IL-4 RBA). An excerpt:
(§1) The wells were washed three times with 0.1% (v/v) Tween 20 in PBS, followed by three washes with PBS, before blocking with 2% (w/v) BSA in PBS. […] The reaction was stopped by the addition of HCl and the absorbance read at 450 nm.

The target in assay [2] is T2, human IL-13 (human, UniProt P35225 35-146, biotinylated on the Biacore chip).
T2 construct: also called hIL-13; recombinant human IL-13
T2 sequence (P35225 35-146 limits assumed): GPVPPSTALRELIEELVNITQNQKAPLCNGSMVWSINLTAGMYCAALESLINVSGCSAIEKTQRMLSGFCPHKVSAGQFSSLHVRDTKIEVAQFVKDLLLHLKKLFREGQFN
In words: IL-13 Biacore.

Assay [3] concerns the target T2, human IL-13. In words: Biacore SPR, IL-13 surface, before and after DOM10-53-386. The procedure: Analytes were passed over the antigen-coated flow-cell, with in-line referencing against a blank flow-cell, at a flow rate of 30 μl/min in HBS-EP running buffer (Biacore).
Background: Surface plasmon resonance follows binding to a sensor surface in real time, without labels.

In assay [4] the target is T2, human IL-13. In words: IL-13 receptor I RBA: FMAT beads, IL-13R alpha1/Fc. On the procedure: The plate was incubated for seven hours before being read in the 8200 cellular detection system (Applied Biosystems).
For assay [5], the target named is T2, human IL-13. Put plainly: cell-based or functional assay.
Another assay concerns the target cynomolgous IL-13 (cynomolgous, UniProt Q0PW92 19-132, The Biacore assay used biotinylated cIL-13 according to our card. The biotin cannot be carried in the letters.). In words: cell-based or functional assay.
Assay [6] concerns the target T2, human IL-13. In words: IL-13 sandwich ELISA, competition with coating antibody. On the procedure: A MAXISORP™ plate (high protein binding ELISA plate, Nunc, Denmark) was coated overnight with 2.5 μg/ml coating antibody (Module Set, Bender MedSystems, Vienna, Austria), then washed once with 0.05% (v/v) Tween 20 in PBS before blocking with 0.5% (w/v) BSA 0.05% (v/v) Tween 20 in PBS. […] The plate was then incubated with TMB substrate (KPL, Gaithersburg, USA), and the reaction was stopped by the addition of HCl and the absorbance read at 450 nm.
For orientation: ELISA stands for enzyme-linked immunosorbent assay.

Assay [7] addresses T2, human IL-13. In words: assay not named ('Potency IC50').
For assay [8], the target named is T1, human IL-4. Put plainly: IL-4 RBA: ELISA, IL-4R/Fc coated, biotinylated IL-4.
Excerpt: as §1

cynomolgous IL-13, sequence (Q0PW92 entry or part of it limits assumed, form in doubt): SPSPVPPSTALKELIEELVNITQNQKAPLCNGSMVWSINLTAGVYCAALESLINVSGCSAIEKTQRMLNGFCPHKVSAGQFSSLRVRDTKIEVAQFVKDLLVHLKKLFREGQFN

B1: DOM10-224-TVAAPS-DOM9-155-78 (bispecific antibody)
chain: DIQMTQSPSSLSASVGDRVTITCRASPNIAVDLAWYQQKPGKAPKLLIRGVSRLQSGVPSRFSGSGSGTDFTLTISSLQPEDFATYYCRQGAMGSYTFGQGTKVEIKRTVAAPSDIQMTQSPSSLSASVGDRVTITCRASRHIGDWLHWYQQKPGKAPKLLIAWASTLDSGVPSRFSGSGSGTDFTLTISSLQPEDFATYYCLQEGWGPPTFGQGTKVEIKR
notes: in-line fusion, from pDOM5
As usually defined, the IC50 is the concentration that gives 50% inhibition. The low end stands for inhibition by little substance, the high end for a need for much substance. As to B1, in the assay with human IL-4 [1], the IC50 was 12.5 nM. Further, the binding result in the assay with human IL-13 [2] was “binds”.

B2: DOM10-276-ASTKGPS-DOM9-155-78 (bispecific antibody)
chain: EVQLLESGGGLVQPGGSLRLSCAASGFTFRDYEMDWVRQAPGKGLEWVSSIGPSGSETYYADSVKGRFTISRDNSKNTLYLQMNSLRAEDTAVYYCAKAYTSFDYWGQGTLVTVSSASTKGPSDIQMTQSPSSLSASVGDRVTITCRASRHIGDWLHWYQQKPGKAPKLLIAWASTLDSGVPSRFSGSGSGTDFTLTISSLQPEDFATYYCLQEGWGPPTFGQGTKVEIKR
notes: in-line fusion, from pDOM5
B2: the IC50 with human IL-4 [1] came to 5.02 nM. Moreover, the binding result with human IL-13 [2] was “binds”.

B3: DOM9-112-210-ASTKGPS-DOM10-275 (bispecific antibody)
chain: EVQLLESGGGLVQPGGSLRLSCAASGFTFRNFGMGWVRQAPGKGLEWVSWIISSGTETYYADSVKGRFTISRDNSKNTLYLQMNSLRAEDTAVYYCAKSLGRFDYWGQGTLVTVSSASTKGPSEVQLLESGGGLVQPGGSLRLSCAASGFTFDREEMDWVRQAPGKGLEWVSTISPSGRKTYYADSVKGRFTISRDNSKNTLYLQMNSLRAEDTAVYYCAKHGTGFDYWGQGTLVTVSS
notes: in-line fusion, from pDOM5
Consider B3, for which the IC50 with human IL-4 [1] came to 10.9 nM. Also, the binding result with human IL-13 [2] was “binds”.

B4: DOM9-112-210-ASTKGPS-DOM10-276 (bispecific antibody)
chain: B3 chain with D153R, R154D, E155Y, T173S, S175G, R179S, K180E, H222A, G223Y, G225S
notes: in-line fusion, from pDOM5
B4 displayed an IC50 with human IL-4 [1] of 10.2 nM. For the same molecule, the binding result with human IL-13 [2] is given as “binds”.

B5: DOM10-277 (other)
VH: EVQLLESGGGLVQPGGSLRLSCAASGFTFSSYEMDWVRQAPGKGLEWVSTISADGVTTYYADSVKGRFTISRDNSKNTLYLQMNSLRAEDTAVYYCAKAFDAFDYWGQGTLVTVSS
notes: VH dAb
In the case of B5, the binding result with human IL-13 [3] is “binds”.

B6: DOM10-176 (other)
VL: DIQMTQSPSSLSASVGDRVTITCRASQWIGPYLNWYQQKPGKAPKLLIYMGSYLQSGVPSRFSGSGSGTDFTLTISSLQPEDFATYYCQQDLYPPYTFGQGTKVEIKR
notes: Vk dAb
As for B6, the concentration for half-maximal inhibition (IC50) in the assay with human IL-13 [4] is 100 nM.

B7: DOM10-215 (other)
VL: B6 VL with W28N, G30F, P31A, Y32D, Y53R, L92Y, Y93K, P94F, Y96L
notes: Vk dAb
With B7, the binding result with human IL-13 [3] is on record as “binds”.

B8: DOM10-208 (other)
VL: DIQMTQSPSSLSASVGDRVTITCRASSPITDGLAWYQQKPGKAPKLLIDTGSRLQSGVPSRFSGSGSGTDFTLTISSLQPEDFATYYCRQGAMGSYTFGQGTKVEIKR
notes: Vk dAb
B8: the binding result with human IL-13 [3] is listed as “binds”.

B9: DOM10-224 (other)
VL: B8 VL with S27P, P28N, T30A, D31V, G32D, D49R, T50G, G51V
notes: Vk dAb
In the case of B9, the binding result with human IL-13 [3] is listed as “binds”.

B10: DOM10-275-94 (other)
VH: EVQLLESGGGLVQPGGSLRLSCAASGFTFDVAEMDWVRQAPGKGLEWVSTISPSRRGTYYADSVKGRFTISRDNSKNTLYLQMNSLRAEDTAVYYCAKAYTGRSWWGPGTLVTVSS
Take B10: the “EC50, HEK293 STAT6 SEAP reporter assay, hIL-13” value (“EC50 … hIL-13” below) with human IL-13 [5] worked out at 2.3 nM. For the same molecule, the “EC50, HEK293 STAT6 SEAP reporter assay, cIL-13” value (“EC50 … cIL-13” for short) with cynomolgous IL-13 was found to be 2 nM.

B11: DOM10-275-99 (other)
VH: B10 VH with Q3H, V31S, V93I, W105Y
Take B11: in the assay with human IL-13 [5], the “EC50 … hIL-13” value came out at 2.8 nM. Also, the “EC50 … cIL-13” value with cynomolgous IL-13 is 2 nM.

B12: DOM10-275-100 (other)
VH: B10 VH with E1G, V31S, W105Y
Take B12: the “EC50 … hIL-13” value with human IL-13 [5] was 2.8 nM. The “EC50 … cIL-13” value with cynomolgous IL-13 was determined as 2.5 nM.

B13: DOM10-275-101 (other)
VH: B10 VH with E1G, A23V, W105L
Consider B13, for which the “EC50 … hIL-13” value with human IL-13 [5] is 3.6 nM and 2 nM. For the same molecule, the “EC50 … cIL-13” value in the assay with cynomolgous IL-13 was 1.8 nM.

B14: DOM10-213 (other)
VL: DIQMTQSPSSLSASVGDRVTITCRASQAIPWGLNWYQQKPGKAPKLLIYDVSSLQSGVPSRFSGSGSGTDFTLTISSLQPEDFATYYCQQDIHIPMTFGQGTKVEIKR
notes: Vk dAb
Take B14: the binding result with human IL-13 [3] is “binds”.

B15: DOM10-53-396 (other)
VH: GVQLLESGGGLVQPGGSLRLSCAASGFIFAWYDMGWARQAPGKGLEWVSSIGWHGNVTYYADSVKGRFTISRDNSKNTLYLQMNSLRAEDTAVYYCATAEDEPGYDYWGQGTLVTVSS
notes: VH dAb
B15: the IC50 in the assay with human IL-13 [6] is 0.055 nM and 0.03 nM.

B16: DOM10-53-434 (other)
VH: B15 VH with A37V, G52D, H54K, N56G, V57K
notes: VH dAb
Consider B16, for which, in the assay with human IL-13 [7], half-maximal inhibition (IC50) required 0.29 nM.

B17: DOM10-53-531 (other)
VH: B15 VH with I28T, A37V, G52D, H54K, N56G, V57K
notes: VH dAb
In the assay with human IL-13 [7], B17 showed a concentration for half-maximal inhibition (IC50) of 0.34 nM.

B18: DOM10-53-472 (other)
VH: B15 VH with G35K, A37V, G52D, N56K, V57I
notes: VH dAb
In the assay with human IL-13 [7], B18 yielded an IC50 of 0.054 nM.

B19: DOM10-53-475 (other)
VH: B15 VH with I28T, A37V, G52D, N56K, V57I
notes: VH dAb
B19: in the assay with human IL-13 [7], it took 0.046 nM to reach half-maximal inhibition (IC50).

B20: DOM10-53-612 (other)
VH: B15 VH with I28A, W31A, A37V, G52D, H54K, N56M, V57E
notes: VH dAb
On to B20, for which the IC50 with human IL-13 [7] was found to be 20 nM.

B21: DOM10-212 (other)
VL: DIQMTQSPSSLSASVGDRVTITCRASSVILNELHWYQQKPGKAPKLLISAVSRLQSGVPSRFSGSGSGTDFTLTISSLQPEDFATYYCLQTFWGPFTFGQGTKVEIKR
notes: Vk dAb
Turning to B21, the binding result with human IL-13 [3] was “binds”.

B22: DOM10-270 (other)
VL: B21 VL with F96Y
notes: Vk dAb
Take B22: the binding result with human IL-13 [3] was “binds”.

B23: DOM9-112-210-ASTKGPS-DOM10-215 (bispecific antibody)
chain: EVQLLESGGGLVQPGGSLRLSCAASGFTFRNFGMGWVRQAPGKGLEWVSWIISSGTETYYADSVKGRFTISRDNSKNTLYLQMNSLRAEDTAVYYCAKSLGRFDYWGQGTLVTVSSASTKGPSDIQMTQSPSSLSASVGDRVTITCRASQNIFADLNWYQQKPGKAPKLLIYMGSRLQSGVPSRFSGSGSGTDFTLTISSLQPEDFATYYCQQDYKFPLTFGQGTKVEIKR
notes: in-line fusion, from pDOM5
In the case of B23, the concentration for half-maximal inhibition (IC50) with human IL-4 [1] turned out to be 14.2 nM. The binding result with human IL-13 [2] is given as “binds”.

B24: DOM9-112-210-ASTKGPS-DOM10-208 (bispecific antibody)
chain: EVQLLESGGGLVQPGGSLRLSCAASGFTFRNFGMGWVRQAPGKGLEWVSWIISSGTETYYADSVKGRFTISRDNSKNTLYLQMNSLRAEDTAVYYCAKSLGRFDYWGQGTLVTVSSASTKGPSDIQMTQSPSSLSASVGDRVTITCRASSPITDGLAWYQQKPGKAPKLLIDTGSRLQSGVPSRFSGSGSGTDFTLTISSLQPEDFATYYCRQGAMGSYTFGQGTKVEIKR
notes: in-line fusion, from pDOM5
With B24, the IC50 in the assay with human IL-4 [1] stood at 2.48 nM. Also, the binding result with human IL-13 [2] is “binds”.

B25: DOM10-236 (other)
VH: EVQLLESGGGLVQPGGSLRLSCAASGFTFPKYDMMWVRQAPGKGLEWVSSIDHLGVNTYYADSVKGRFTISRDNSKNTLYLQMNSLRAEDTAVYYCAKESDWPSFDYWGQGTLVTVSS
notes: VH dAb
In the case of B25, the binding result in the assay with human IL-13 [3] is “binds”.

B26: DOM9-112-210-DOM10-53-546 (bispecific antibody)
chain: EVQLLESGGGLVQPGGSLRLSCAASGFTFRNFGMGWVRQAPGKGLEWVSWIISSGTETYYADSVKGRFTISRDNSKNTLYLQMNSLRAEDTAVYYCAKSLGRFDYWGQGTLVTVSSASTKGPSGVQLLESGGGLVQPGGSLRLSCAASGFVFPWYDMGWVRQAPGKGLEWVSSIDWKGGKTYYADSVKGRFTISRDNSKNTLYLQMNSLRAEDTAVYYCATAEDEPGYDYWGQGTLVTVSS
notes: in-line fusion, from pDOM5
By EC50 is commonly meant the concentration that produces a half-maximal response. B26 displayed a concentration giving a half-maximal response (EC50) in the assay with human IL-13 [6] of 1 nM. Moreover, in the assay with human IL-4 [8], the IC50 is 4.3 nM and 6 nM.

The values above are taken from patent US20090060916A1 (published 2009).
